Reference: patent US20080044411A1

Target: GLP-1 R expressed in Rinm cells
Test: cell-based or functional assay

## GLP-1 peptide (from UniProt P01275 98-128)
  cAMP activity in Rinm cells, EC50: 0.4 nM
